According to patent US8399213B2, “Method for monitoring intracellular tyrosine phosphatase activity” (University of Southern California, priority 2008, dated 2013):
Square brackets hold non-standard residues; d marks the D form. Ends that are not written are not given here. Ala(7-OPO3H2-coumarin-4-yl) = N[C@@H](Cc1cc(=O)oc2cc(OP(=O)(O)O)ccc12)C(=O)O

What was measured:
[1] = test system: intracellular PTPs in JTAg cells; assay: Intracellular dephosphorylation of nucleofected pCAP peptide, flow cytometry; format: cell-based, human; details: preincubated with 10 mM vanadate; 100 μM 9LckpCAP394 peptide; 1′ after nucleofection
Procedure: FIG. 3. Dephosphorylation of pCAP peptide by intracellular PTPs after nucleofection. (A) Time-course of intracellular dephosphorylation of nucleofected 9Lck394 CAP-based peptides. JTAg human T cells were nucleofected in the presence of 100 μM pCAP peptide (blue lines), 100 μM CAP peptide (red lines) or 100 μM of a non-hydrolyzable Et2pCAP peptide (green lines). Cell fluorescence was measured using a BD LSR-II with a DAPI filter at 30″ (dotted lines) and 1′ (continuous lines). […] (B) Fluorescence of non-nucleofected JTAg cells incubated in the presence of the CAP-based peptides used for the experiment in panel (A). Graphs show fluorescence of non-nucleofected cells incubated with 100 μM pCAP peptide (dashed blue line), 100 μM CAP peptide (dashed red line) or 100 μM of a non-hydrolyzable Et2pCAP peptide (dashed green line). Data from panel (A) and (B) are representative of the same experiment. […] JTAg cells were nucleofected in the presence of 100 μM 9LckpCAP394 peptide and cell fluorescence was measured at 1′ (pink line), 2.5′ (purple line), 5′ (light blue line), and 10′ (dark blue line). […]
FIG. 4. […] Dashed red and blue lines show fluorescence of non-nucleofected cells incubated with pCAP peptide (blue dashed line) or CAP peptide (red dashed line), and vanadate.
FIG. 5. […] The fluorescence of cells was assessed at 1′ (black lines) or 15′ (yellow lines) after fixation. […]

Jurkat TAg (JTAg) cells = assay: Cellular uptake of cell-permeable CAP peptides, flow cytometry; format: cell-based; details: JTAg T cells treated with lipid-R7 peptides
Procedure: FIG. 6. […] Cells were incubated for 1 hour with RPMI with 0.5% FBS with DMSO alone or containing 12.5 μM of Ant-CAP or R8-CAP. The fluorescence (Y axis) versus forward scatter (X axis) of 10,000 cells gated as live T cells on the forward versus side scatter plot is shown. The percentage (%) of positive (showing fluorescence over the control level) cells is shown in each panel.
The inventors have shown that pCAP peptides are dephosphorylated by PTPs, but are not recognized by serine/threonine phosphatases, which makes them particularly suitable as probes to detect intracellular PTP activity (FIG. 1). […] The amount of enzyme used was normalized to be the same activity on DiFMUP. […] To determine if these peptides are suitable substrates for cell-based screening of PTP inhibitors, the inventors further assessed dephosphorylation in microinjected cells. Using fluorescence microscopy, intracellular dephosphorylation of the microinjected peptides was observed as recognized by an increase in fluorescence over time and was inhibited by a known PTP inhibitor (FIG. 2). […] Human Jurkat TAg (JTAg) cells with CAP-ANT and CAP-R8 peptides were incubated and analyzed by flow cytometry. […]
Cells are added to wells of a plate at a concentration of up to 10 million/mL. […] Cells can be analyzed with any flow cytometry system equipped with appropriate excitation and emission filters.

T cell PTP (TCPTP) = target: T1, T cell PTP (TCPTP) (Homo sapiens, UniProt P17706); details: cited from earlier work
T1 sequence (P17706 1-415): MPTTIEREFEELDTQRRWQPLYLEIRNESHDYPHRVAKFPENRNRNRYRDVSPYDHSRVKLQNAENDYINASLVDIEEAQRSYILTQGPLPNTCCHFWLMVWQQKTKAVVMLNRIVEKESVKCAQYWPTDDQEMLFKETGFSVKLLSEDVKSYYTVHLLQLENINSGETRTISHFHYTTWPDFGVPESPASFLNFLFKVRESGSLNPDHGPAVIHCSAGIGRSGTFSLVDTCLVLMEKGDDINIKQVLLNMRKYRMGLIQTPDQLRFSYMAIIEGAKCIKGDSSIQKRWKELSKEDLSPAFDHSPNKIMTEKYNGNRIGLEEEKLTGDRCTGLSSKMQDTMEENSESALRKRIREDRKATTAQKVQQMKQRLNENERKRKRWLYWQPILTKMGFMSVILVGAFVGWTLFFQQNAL

YOP = YOP (Yersinia enterocolitica, UniProt P15273); details: excitation at 340 nm and emission at 460 nm; cited from earlier work
PTPN22 = target: T2, PTPN22 (Homo sapiens, UniProt Q9Y2R2); assay: Dephosphorylation of pCAP peptide by PTPN22; format: biochemical
T2 sequence (Q9Y2R2 1-807): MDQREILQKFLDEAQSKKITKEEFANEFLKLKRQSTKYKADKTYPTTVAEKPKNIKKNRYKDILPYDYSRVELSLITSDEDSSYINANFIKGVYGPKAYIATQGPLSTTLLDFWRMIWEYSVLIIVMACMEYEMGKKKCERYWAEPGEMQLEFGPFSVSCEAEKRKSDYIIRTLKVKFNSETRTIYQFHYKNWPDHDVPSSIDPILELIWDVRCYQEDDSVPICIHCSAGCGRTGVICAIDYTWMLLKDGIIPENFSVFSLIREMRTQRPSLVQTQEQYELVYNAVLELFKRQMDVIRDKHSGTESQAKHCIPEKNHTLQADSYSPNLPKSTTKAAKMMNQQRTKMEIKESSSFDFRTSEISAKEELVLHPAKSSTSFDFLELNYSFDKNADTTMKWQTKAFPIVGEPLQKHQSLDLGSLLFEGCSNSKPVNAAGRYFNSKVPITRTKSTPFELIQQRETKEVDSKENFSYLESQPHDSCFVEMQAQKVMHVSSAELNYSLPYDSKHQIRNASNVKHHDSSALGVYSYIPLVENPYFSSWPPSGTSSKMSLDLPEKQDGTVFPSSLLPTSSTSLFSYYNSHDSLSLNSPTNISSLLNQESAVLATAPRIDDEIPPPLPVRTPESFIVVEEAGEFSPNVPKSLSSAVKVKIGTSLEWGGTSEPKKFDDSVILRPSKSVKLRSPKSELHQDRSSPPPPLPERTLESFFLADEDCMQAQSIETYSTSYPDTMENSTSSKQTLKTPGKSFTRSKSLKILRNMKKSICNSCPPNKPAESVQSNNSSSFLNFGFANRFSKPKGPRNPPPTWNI
Procedure: (§1) (A) Structure of CAP, pCAP, and Et2-pCAP, a non-hydrolyzable form of pCAP. (B) Kinetic parameters of dephosphorylation of 9LckpCAP394 peptide by PTPN22. (C) Time-course of dephosphorylation of 0.2 mM 9LckpCAP394 peptide by PP1 (filled triangles), PP2A (open squares), or PP2B (filled squares). Linear regression is also shown. The activity of the enzymes was normalized using difluoromethylumbelliferone phosphate (DiFMUP) as substrate and equal units were used for all the assays on pCAP peptide. Open diamonds and dashed line show representative activity of all enzymes on 0.2 mM DiFMUP.
(§2) The amount of enzyme used was normalized to be the same activity on DiFMUP. […] To determine if these peptides are suitable substrates for cell-based screening of PTP inhibitors, the inventors further assessed dephosphorylation in microinjected cells. […] In principle, any FACS system equipped with the appropriate excitation and emission filters could be used. […] Human Jurkat TAg (JTAg) cells with CAP-ANT and CAP-R8 peptides were incubated and analyzed by flow cytometry.

[2] = test system: serine-threonine phosphatases (PP1, PP2A, PP2B); assay: Dephosphorylation of pCAP peptide by serine-threonine phosphatases, plate reader time-course; format: biochemical; details: 0.2 mM peptide; optimal buffer for each enzyme; enzyme amount normalized to same activity on DiFMUP
Procedure: as §1, §2

[3] = test system: T3, 9LckpCAP394 peptide (EDNE-pCAP-TARE)
T3 sequence: EDNEXTARE

[4] = target: T4, 9LckpCAP394 peptide (EDNE-pCAP-TARE)
T4 chain: EDNEXTARE

YOP, sequence (P15273 whole entry): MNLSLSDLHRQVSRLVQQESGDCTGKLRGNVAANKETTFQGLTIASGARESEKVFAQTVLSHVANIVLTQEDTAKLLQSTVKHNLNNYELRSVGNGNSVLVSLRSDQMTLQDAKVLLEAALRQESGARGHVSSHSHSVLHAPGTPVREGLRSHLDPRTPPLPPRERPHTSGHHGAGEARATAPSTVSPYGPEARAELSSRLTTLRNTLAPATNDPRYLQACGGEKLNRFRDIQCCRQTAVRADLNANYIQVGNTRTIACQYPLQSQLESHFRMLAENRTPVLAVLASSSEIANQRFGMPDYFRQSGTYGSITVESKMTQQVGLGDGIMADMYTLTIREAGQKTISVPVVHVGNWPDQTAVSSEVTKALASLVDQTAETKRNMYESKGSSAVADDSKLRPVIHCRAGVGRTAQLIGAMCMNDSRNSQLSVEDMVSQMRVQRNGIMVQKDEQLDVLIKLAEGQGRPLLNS

[O]=[V]([O-])([O-])[O-] [Vanadate, vanadate]
inhibition of dephosphorylation of pCAP peptide in nucleofected JTAg cells [1]: inhibits the dephosphorylation

C14-betaAla-R7-CAP
efficacy of internalization compared to non-lipidic tags (Jurkat TAg (JTAg) cells): substantially increase efficacy of internalization

C16-betaAla-R7-CAP
efficacy of internalization compared to non-lipidic tags (Jurkat TAg (JTAg) cells): substantially increase efficacy of internalization

DADE-pCAP-GPAA-NH2 (DADEXGPAX; pCAP residue, C-terminal amide; artificial YOP substrate) [peptide 1]
turnover by human PTPs including TCPTP (T cell PTP (TCPTP)): efficiently turned over | fluorescence change on dephosphorylation by YOP (YOP): linear increase in fluorescence

EDNE-pCAP-TARE (EDNE[Ala(7-OPO3H2-coumarin-4-yl)]TARE) [9Lck394p CAP, pCAP peptide, artificial PTPN22 substrate]
hydrolysis by PTPN22 (PTPN22): efficiently hydrolyzed | hydrolysis by serine-threonine phosphatases [2]: ineffective at hydrolysis

PP1
hydrolysis (dephosphorylation) of 0.2 mM pCAP peptide over time, fluorescence excitation 340 nm / emission 460 nm [3]: The serine-threonine phosphatases were ineffective at hydrolysis of this peptide

PP2A
hydrolysis (dephosphorylation) of 0.2 mM pCAP peptide over time, fluorescence excitation 340 nm / emission 460 nm [3]: The serine-threonine phosphatases were ineffective at hydrolysis of this peptide

PP2B
hydrolysis (dephosphorylation) of 0.2 mM pCAP peptide over time, fluorescence excitation 340 nm / emission 460 nm [3]: The serine-threonine phosphatases were ineffective at hydrolysis of this peptide

B1: PTPN22 (protein)
chain: MDQREILQKFLDEAQSKKITKEEFANEFLKLKRQSTKYKADKTYPTTVAEKPKNIKKNRYKDILPYDYSRVELSLITSDEDSSYINANFIKGVYGPKAYIATQGPLSTTLLDFWRMIWEYSVLIIVMACMEYEMGKKKCERYWAEPGEMQLEFGPFSVSCEAEKRKSDYIIRTLKVKFNSETRTIYQFHYKNWPDHDVPSSIDPILELIWDVRCYQEDDSVPICIHCSAGCGRTGVICAIDYTWMLLKDGIIPENFSVFSLIREMRTQRPSLVQTQEQYELVYNAVLELFKRQM
hydrolysis (dephosphorylation) of pCAP peptide, fluorescence excitation 340 nm / emission 460 nm [4]: efficiently hydrolyzed by PTPN22
